In patent US20200199241A1 (Chugai, published 2020):

T1: soluble human IL-6 receptor (human, UniProt P08887 20-357)
T1 construct: also called hsIL-6R
T1 sequence: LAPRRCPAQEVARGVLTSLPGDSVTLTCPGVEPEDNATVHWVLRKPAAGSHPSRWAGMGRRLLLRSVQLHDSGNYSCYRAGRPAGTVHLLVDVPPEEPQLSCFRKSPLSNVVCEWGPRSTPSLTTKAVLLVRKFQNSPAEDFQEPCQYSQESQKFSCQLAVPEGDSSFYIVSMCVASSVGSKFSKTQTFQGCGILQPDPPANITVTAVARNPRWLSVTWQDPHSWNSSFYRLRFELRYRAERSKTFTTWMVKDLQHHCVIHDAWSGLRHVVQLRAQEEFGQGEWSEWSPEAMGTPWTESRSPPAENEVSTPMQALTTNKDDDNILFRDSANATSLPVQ

T2: human FcγRIIa(H) (human, UniProt P12318 36-217)
T2 construct: also called hFcgRIIa(H); FcγRIIa type H
T2 sequence: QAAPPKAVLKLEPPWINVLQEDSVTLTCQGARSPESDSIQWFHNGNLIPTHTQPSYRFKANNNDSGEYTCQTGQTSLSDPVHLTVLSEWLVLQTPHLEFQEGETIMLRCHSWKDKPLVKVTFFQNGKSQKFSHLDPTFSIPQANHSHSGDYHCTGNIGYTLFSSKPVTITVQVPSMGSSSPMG

T3: human FcγRIIb (human, UniProt P31994 43-217, limits assumed)
T3 construct: also called hFcgRIIb; FcγIIB
T3 sequence: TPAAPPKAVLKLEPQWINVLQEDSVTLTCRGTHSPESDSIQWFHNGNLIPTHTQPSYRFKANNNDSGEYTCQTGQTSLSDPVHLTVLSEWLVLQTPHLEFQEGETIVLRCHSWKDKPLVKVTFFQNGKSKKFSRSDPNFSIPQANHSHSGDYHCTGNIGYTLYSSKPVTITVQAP

T4: human FcγRIIa(R) (human, UniProt P12318 36-217)
T4 construct: also called hFcgRIIa(R); FcγRIIa type R
T4 chain: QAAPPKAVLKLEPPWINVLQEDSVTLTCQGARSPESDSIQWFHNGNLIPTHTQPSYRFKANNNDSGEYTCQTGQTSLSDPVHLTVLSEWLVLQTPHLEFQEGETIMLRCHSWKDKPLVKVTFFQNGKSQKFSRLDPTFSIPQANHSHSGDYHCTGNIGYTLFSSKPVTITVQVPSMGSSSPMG

T5: human FcγRIIa type R (human, UniProt P12318 36-217)
T5 construct: also called FcγRIIaR; FcγRIIa(R)
T5 chain: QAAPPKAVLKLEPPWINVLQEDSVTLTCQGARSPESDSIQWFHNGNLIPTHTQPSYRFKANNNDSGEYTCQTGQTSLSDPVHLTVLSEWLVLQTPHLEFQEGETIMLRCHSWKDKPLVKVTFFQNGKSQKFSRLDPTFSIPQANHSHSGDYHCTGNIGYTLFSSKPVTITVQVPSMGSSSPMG

T6: human FcγRIIa type H (human, UniProt P12318 36-217)
T6 construct: also called FcγRIIaH; FcγRIIa(H)
T6 sequence: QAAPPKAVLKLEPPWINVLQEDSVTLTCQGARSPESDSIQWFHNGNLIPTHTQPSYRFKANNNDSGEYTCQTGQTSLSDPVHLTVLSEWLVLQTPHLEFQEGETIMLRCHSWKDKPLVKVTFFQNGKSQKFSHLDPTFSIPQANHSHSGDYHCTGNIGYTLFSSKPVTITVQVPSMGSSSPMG

T7: human FcγRIIb (human, UniProt P31994 43-217, limits assumed)
T7 construct: also called FcγIIB
T7 sequence: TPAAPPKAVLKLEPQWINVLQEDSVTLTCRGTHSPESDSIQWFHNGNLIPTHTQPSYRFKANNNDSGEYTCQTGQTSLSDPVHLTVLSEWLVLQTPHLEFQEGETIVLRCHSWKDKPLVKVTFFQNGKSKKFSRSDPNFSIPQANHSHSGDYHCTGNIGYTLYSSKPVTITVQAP


Experiments:
[1] = target: T1, soluble human IL-6 receptor; assay: Biacore SPR, 3 uM CaCl2, pH 7.4, 37C, estimated from Req and Rmax
Procedure: (§1) The kinetic analysis of the antigen-antibody reactions was conducted in solutions with 2 mM and 3 μM calcium ion concentrations, set as high and low calcium ion concentration conditions, respectively. The antibody of interest was captured on Sensor chip CM4 (GE Healthcare) on which an appropriate amount of protein A (Invitrogen) was immobilized by an amine coupling method. Two buffers [10 mM N-(2-acetamido)-2-aminoethanesulfonic acid (ACES), 150 mM NaCl, 0.05% (w/v) polysorbate 20 (Tween 20®), and 2 mM CaCl₂ (pH 7.4) or 10 mM ACES, 150 mM NaCl, 0. 05% (w/v) polysorbate 20 (Tween 20®), and 3 μmol/L CaCl₂ (pH 7.4)] were used as running buffers. These buffers were used for diluting human IL-6 receptor. All the measurements were conducted at 37° C.
(§2) Subsequently, the sensor chip was regenerated by injecting 10 mM glycine-HCl (pH 1.5) at a flow rate 30 μL/min for 30 seconds.

[2] = target: T1, soluble human IL-6 receptor; assay: Biacore SPR, 3 uM CaCl2, pH 7.4, 37C, estimated
Procedure: as §1, §2

human FcγRIIa(H) = target: T2, human FcγRIIa(H); assay: SPR, antibody captured on the chip, FcγR as analyte, HBS-EP+, 25 C; amount bound corrected for captured antibody
Procedure: (§3) Interaction between each modified antibody and Fcγ receptor prepared in the manner described above was analyzed using the BIACORE™ T100 surface plasmon resonance system (GE Healthcare), BIACORE™ T200 surface plasmon resonance system (GE Healthcare), BIACORE™ A100 surface plasmon resonance system or BIACORE™ 4000 surface plasmon resonance system. HBS-EP+ (GE Healthcare) was used for the running buffer, and measurements were carried out at 25° C. The chips used were chips in which antigen peptides, Protein A (Thermo Scientific), Protein A/G (Thermo Scientific) or Protein L (ACTIGEN® protein (Alltech or BioVision) were immobilized on the Series S Sensor Chip CMS (GE Healthcare) or Series S Sensor Chip CM4 (GE Healthcare) by amine coupling, or chips in which preliminarily biotinylated antigen peptides were allowed to interact and then immobilized on the Series S Sensor Chip SA (certified) (GE Healthcare). The target antibodies were captured on these sensor chips, Fcγ receptor diluted with the running buffer was allowed to interact, followed by measurement of the amount of bound antibody. The amounts bound were compared between antibodies. However, since the amount of Fcγ receptor bound depends on the amount of captured antibody, the values used for comparison were first corrected by dividing the amount of Fcγ receptor bound by the captured amount of each antibody. Through reaction with 10 mM glycine-HCl at pH 1.5, the sensor chips were regenerated by washing off antibody captured on the sensor chips and used repeatedly.

human FcγRIIb [3] = target: T3, human FcγRIIb; assay: as above
Procedure: as §3

human FcγRIIa(R) = target: T4, human FcγRIIa(R); assay: as above
Procedure: as §3

human FcγRIa [4] = target: T8, human FcγRIa (human, UniProt P12314 16-292, limits assumed); assay: as above
T8 construct: also called hFcgRIa; hFcgRI
T8 sequence (P12314 16-292 limits assumed): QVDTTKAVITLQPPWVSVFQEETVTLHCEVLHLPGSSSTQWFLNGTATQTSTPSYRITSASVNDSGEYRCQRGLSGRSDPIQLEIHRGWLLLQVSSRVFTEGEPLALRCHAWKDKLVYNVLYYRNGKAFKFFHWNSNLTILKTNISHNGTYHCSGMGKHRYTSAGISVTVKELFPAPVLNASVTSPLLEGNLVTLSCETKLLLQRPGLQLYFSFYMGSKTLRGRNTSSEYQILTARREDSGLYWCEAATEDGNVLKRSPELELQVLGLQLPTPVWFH
Procedure: as §3

human FcγRIIa type R = target: T5, human FcγRIIa type R; assay: SPR (Biacore), antibody captured, FcγR as analyte
human FcγRIIa type H = target: T6, human FcγRIIa type H; assay: SPR (Biacore), antibody captured, FcγR as analyte
human FcγRIa [5] = target: T9, human FcγRIa (human, UniProt P12314 16-292, limits assumed); assay: SPR (Biacore), antibody captured, FcγR as analyte
T9 construct: also called CD64
T9 sequence (P12314 16-292 limits assumed): as above

human FcγRIIb [6] = target: T7, human FcγRIIb; assay: SPR (Biacore), antibody captured, FcγR as analyte
human FcγRIIb [7] = target: T7, human FcγRIIb; assay: SPR (Biacore); ratio against parent IL6R-F11/IL6R-L
human FcγRIIb [8] = target: T7, human FcγRIIb; assay: SPR (Biacore); KD for FcγRIIaR divided by KD for FcγRIIb of the same antibody
human FcγRIIb [9] = target: T7, human FcγRIIb; assay: SPR (Biacore); KD for FcγRIIaH divided by KD for FcγRIIb of the same antibody

Kd [1] [µM]	Kd [2] [µM]	relative binding activity (GpH7-G1d/GpL16-k0 = 100) (human FcγRIIa(H))	relative binding activity (GpH7-G1d/GpL16-k0 = 100) (human FcγRIIb [3])	relative binding activity (GpH7-G1d/GpL16-k0 = 100) (human FcγRIIa(R))	relative binding activity (GpH7-G1d/GpL16-k0 = 100) (human FcγRIa [4])	Binder	further results
~31	≥ 31					6RL#9-IgG1 (antibody, V domains shown, not shown: a dimerising Fc or GST) VH: QVQLVQSGAEVKKPGASVKVSCKASGYTFTSYYMHWVRQAPGQGLEWMGIINPSGGSTSYAQKFQGRVTMTRDTSTSTVYMELSSLRSEDTAVYYCARDDPGGGEYYFDYWGQGTLVTVSS VL: QSVLTQPPSVSGAPGQRVTISCTGSRSNMGAGYDVHWYQLLPGAAPKLLISHNTHRPSGVPDRFSGSKSGASASLAITGLQAEDEADYYCQSHDSSLSAVVFGGGTKLTVLS	
~34	≥ 34					FH4-IgG1 (antibody, V domains shown) VH: QVQLVQSGAEVKKPGSSVKVSCKASGGTFSSYAISWVRQAPGQGLEWMGGIIPIFGTANYAQKFQGRVTITADESTSTAYMELSSLRSEDTAVYYCARERDYYDSSGYYDAFDIWGQGTMVTVSS VL: ETTVTQSPSFLSASVGDRVTITCITTTDIDDDMNWFQQEPGKAPKLLISEGNILRPGVPSRFSSSGYGTDFTLTISKLQPEDFATYYCLQSDNLPFTFGQGTKLEIKR	
		100	100	100	100	GpH7-G1d/GpL16-k0 (antibody, human IgG1, anti-glypican-3 antibody; G1d is IgG1 with Gly and Lys deleted from the C terminus; copies: 2 + 2) heavy: not shown light: DIVMTQSPLSLPVTPGEPASISCQASESLVHSNRNTYLHWYLQKPGQSPQLLIYKVSNRFSGVPDRFSGSGSGTDFTLKISRVEAEDVGVYYCSQNTHVPPTFGQGTKVEIE	
		92	88	94	109	GpH7-B3/GpL16-k0 (antibody, human IgG1, anti-glypican-3 antibody, constant region G1d with K439E; copies: 2 + 2) heavy: not shown light: DIVMTQSPLSLPVTPGEPASISCQASESLVHSNRNTYLHWYLQKPGQSPQLLIYKVSNRFSGVPDRFSGSGSGTDFTLKISRVEAEDVGVYYCSQNTHVPPTFGQGTKVEIE	
						IL6R-F11/IL6R-L (antibody, human IgG1, IL6R-G1d with M252Y/N434Y (EU numbering)) heavy: not shown light: DIQMTQSPSSLSASVGDRVTITCRASQDISSYLNWYQQKPGKAPKLLIYYTSRLHSGVPSRFSGSGSGTDFTFTISSLQPEDIATYYCQQGNTLPYTFGQGTKVEIK	Kd (human FcγRIIa type R): 5 µM; Kd (human FcγRIIa type H): 5 µM; Kd (human FcγRIa [5]): 0.0009 µM; Kd (human FcγRIIb [6]): 6.8 µM; KD(IIb) of parent polypeptide/KD(IIb) of altered polypeptide (human FcγRIIb [7]): 1; KD(IIaR)/KD(IIb) (human FcγRIIb [8]): 0.7; KD(IIaH)/KD(IIb) (human FcγRIIb [9]): 0.7
